Assay results as given in PMC8080463.

What follows are binders tested against T1, CRP (UniProt P02741 19-224) (assay: SPR).
T1 sequence: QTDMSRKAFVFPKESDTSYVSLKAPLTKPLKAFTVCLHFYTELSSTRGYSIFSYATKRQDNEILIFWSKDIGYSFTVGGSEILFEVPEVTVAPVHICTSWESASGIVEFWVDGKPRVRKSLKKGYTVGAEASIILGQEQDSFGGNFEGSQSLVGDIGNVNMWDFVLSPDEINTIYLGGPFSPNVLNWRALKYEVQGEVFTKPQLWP
GGGATCGTGGAGTTCTGGGTAGATGGGAAGCCCAGGG (ssDNA) [CRP-PQS1]: no binding.

What follows are binders tested against T2, PLGF (Homo sapiens, UniProt P49763 19-141+214-221, internal_change) (assay: SPR).
T2 sequence: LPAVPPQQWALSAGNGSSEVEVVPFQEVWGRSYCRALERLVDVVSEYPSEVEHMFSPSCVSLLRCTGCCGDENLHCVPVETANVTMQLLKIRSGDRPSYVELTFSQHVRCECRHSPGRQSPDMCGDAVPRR
GGGCCTCGCGGGCCAGTCGGGCGTCGCGGG (structured_DNA) [PLGF-PQS3]: no binding. GGGAGGGAGGGAGGG (structured_DNA) [PLGF-PQS2]: no binding. GGGCGCCGAGGGGCAGGCGGGTCCCGGGG (structured_DNA) [PLGF-PQS1]: no binding. GGGCGGGTGTCCCGGGTGTCGGG (structured_DNA) [PLGF-PQS4]: no binding.

The binders below were run against HGF (UniProt P14210;P14210 32-494;495-728) (assay: SPR).
Sequence of HGF (P14210 32-494, chain 1 of 2): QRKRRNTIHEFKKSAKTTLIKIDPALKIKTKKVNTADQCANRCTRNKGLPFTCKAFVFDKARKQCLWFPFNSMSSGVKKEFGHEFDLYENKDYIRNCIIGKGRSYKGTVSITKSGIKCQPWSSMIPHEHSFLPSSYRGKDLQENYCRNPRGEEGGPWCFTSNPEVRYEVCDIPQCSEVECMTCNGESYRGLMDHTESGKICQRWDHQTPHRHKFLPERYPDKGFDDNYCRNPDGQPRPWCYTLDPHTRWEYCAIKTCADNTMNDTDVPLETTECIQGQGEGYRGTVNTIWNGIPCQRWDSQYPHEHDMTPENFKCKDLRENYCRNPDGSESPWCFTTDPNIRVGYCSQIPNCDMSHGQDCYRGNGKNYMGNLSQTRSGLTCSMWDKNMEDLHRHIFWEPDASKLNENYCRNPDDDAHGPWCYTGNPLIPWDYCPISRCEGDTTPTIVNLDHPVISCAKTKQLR
Sequence of HGF (P14210 495-728, chain 2 of 2): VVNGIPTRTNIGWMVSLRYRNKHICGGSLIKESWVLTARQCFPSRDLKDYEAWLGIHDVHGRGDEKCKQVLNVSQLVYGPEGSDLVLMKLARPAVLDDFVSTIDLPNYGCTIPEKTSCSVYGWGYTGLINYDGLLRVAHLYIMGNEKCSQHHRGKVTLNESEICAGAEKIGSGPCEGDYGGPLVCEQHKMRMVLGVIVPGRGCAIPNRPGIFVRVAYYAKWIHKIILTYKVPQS
GGACGGGCTGGCGG (ssDNA) [HGF-PQS5]: no binding. GGGCTGGCAGGAGTTTGG (ssDNA) [HGF-PQS4]: no binding. GGAAAGGAGGGGGCTGG (structured_DNA) [HGF-PQS9]: no binding. GGAAGGGAGGAGCAAGG (structured_DNA) [HGF-PQS6]: no binding.

What follows are binders tested against T1, CRP (assay: EMSA).
GGGGACTGTTGTGGGGTGGGGGGAGGGGGG (ssDNA) [CRP-PQS2]: binds.

These binders were tested against Annexin 2 (UniProt P07355 2-339) (assay: EMSA).
Sequence of Annexin 2 (P07355 2-339): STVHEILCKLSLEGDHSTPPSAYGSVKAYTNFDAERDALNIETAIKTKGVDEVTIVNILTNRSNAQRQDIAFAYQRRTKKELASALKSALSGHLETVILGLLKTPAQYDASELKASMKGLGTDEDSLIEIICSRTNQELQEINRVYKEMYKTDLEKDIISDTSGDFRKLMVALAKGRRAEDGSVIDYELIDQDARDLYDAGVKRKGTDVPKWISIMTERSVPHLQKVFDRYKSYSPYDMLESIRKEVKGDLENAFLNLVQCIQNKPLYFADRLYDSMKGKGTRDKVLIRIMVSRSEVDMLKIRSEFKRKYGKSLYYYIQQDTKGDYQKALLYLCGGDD
GGACCTGCGGCTCCCTGGGCGG (structured_DNA) [Annexin2-PQS1]: binds. GGCGCCTGGCGCGTCTGGAATGCGG (structured_DNA) [Annexin2-PQS2]: binds. GGGGAGGCGGGGCGGGGCGGGG (structured_DNA) [Annexin2-PQS6]: binds. GGGCAGGGCCAGGGGCGCTGGG (structured_DNA) [Annexin2-PQS5]: binds. GGGCCGGGAGGGTGCAGGG (structured_DNA) [Annexin2-PQS7]: binds.

Each binder was assayed against TNF-alpha (UniProt P01375 77-233) (assay: EMSA).
Sequence of TNF-alpha (P01375 77-233): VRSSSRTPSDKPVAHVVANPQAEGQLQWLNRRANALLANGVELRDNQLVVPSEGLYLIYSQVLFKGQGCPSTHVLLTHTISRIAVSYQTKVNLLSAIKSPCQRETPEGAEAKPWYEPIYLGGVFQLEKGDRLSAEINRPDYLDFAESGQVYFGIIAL
GGGAGAGAGGGAGGGAGGTCGTTTGGG (structured_DNA) [TNFa-PQS4]: no binding. GGGCATGGGGACGGGGTTCAGCCTCCAGGG (structured_DNA) [TNFa-PQS2]: no binding. GGGTTTGGGTTTGGGGGTAGGG (structured_DNA) [TNFa-PQS1]: no binding. GGGTCCGAACAGGGACGATGGGGGTGGG (structured_DNA) [TNFa-PQS3]: no binding.
